Results as given in article PMC10823224 (2024).

Biological target: fusion-competent ectodomain of influenza virus A/PR8/34 (Ecto-PR8/34) hemagglutinin (influenza virus A/PR/8/34, UniProt P03452 18-528)
Experiment: BLI

Chain of fusion-competent ectodomain of influenza virus A/PR8/34 (Ecto-PR8/34) hemagglutinin (P03452 18-528): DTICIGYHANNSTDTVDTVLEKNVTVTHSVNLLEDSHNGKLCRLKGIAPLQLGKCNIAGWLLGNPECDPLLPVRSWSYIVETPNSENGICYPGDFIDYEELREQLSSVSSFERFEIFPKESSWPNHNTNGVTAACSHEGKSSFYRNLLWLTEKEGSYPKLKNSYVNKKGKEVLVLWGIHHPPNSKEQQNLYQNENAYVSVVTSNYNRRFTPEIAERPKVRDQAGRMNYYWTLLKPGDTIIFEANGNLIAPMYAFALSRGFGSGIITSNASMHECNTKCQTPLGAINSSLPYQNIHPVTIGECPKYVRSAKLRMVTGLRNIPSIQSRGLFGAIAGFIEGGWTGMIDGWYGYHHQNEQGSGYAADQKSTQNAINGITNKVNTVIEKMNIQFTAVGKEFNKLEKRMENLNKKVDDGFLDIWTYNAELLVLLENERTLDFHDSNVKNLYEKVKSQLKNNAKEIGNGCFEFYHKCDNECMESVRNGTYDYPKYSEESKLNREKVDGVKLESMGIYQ

B1: anti-HA antibody C179 (antibody, V domains shown)
VH: EVKLVESGGGLVQPGGSLRLSCGTSGFTLTDDYMTWVRQPPGKALEWLGFIRDRANGYTTEYSASVKGRFTISRDNSQSIVYLQMNTLRVEDSATYYCARPKGYFPYAMDYWGQGTSVIVSS
VL: DIQMTQSPASQSASLGESVTITCLASQTIGTWLAWYQQKPGKSPQLLIYAATSLADGVPSRFSGSGSGTKFSFKISSLQAEDFVSYYCQQLYSTPWTFGGGTRLEIKR
With B1 the Kd was 18.4 nM.
